This is an account of results in PMC3713010, “Sox2 Transcriptionally Regulates Pqbp1, an Intellectual Disability-Microcephaly Causative Gene, in Neural Stem Progenitor Cells”.

The labels stand for the following.
T1: Oct6 DNA-binding domain (BD-Oct6) (Mus musculus (B6), UniProt P21952 317-416)
T1 sequence: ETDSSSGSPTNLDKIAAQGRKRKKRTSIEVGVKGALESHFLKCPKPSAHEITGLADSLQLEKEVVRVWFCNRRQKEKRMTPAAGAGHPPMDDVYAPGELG

T2: Brn2 DNA-binding domain (BD-Brn2) (Mus musculus (B6), UniProt P31360 336-435)
T2 sequence: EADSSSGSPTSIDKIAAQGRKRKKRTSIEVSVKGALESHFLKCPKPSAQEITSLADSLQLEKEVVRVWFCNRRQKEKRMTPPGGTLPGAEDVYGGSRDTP

B1: 65 (dsDNA)
DNA 1: GGGGGGTACTTGGTGATAATTTCATTGTCCACATGCCCCCC
DNA 2: GGGGGGCATGTGGACAATGAAATTATCACCAAGTACCCCCC
B2: 81 (dsDNA)
DNA 1: GGGGGAGAGTGCTGGTATTAAAAGGCACAAACTTTCTTTCCCCC
DNA 2: GGGGGAAAGAAAGTTTGTGCCTTTTAATACCAGCACTCTCCCCC
B3: 80 (dsDNA)
DNA 1: GGGGGCATCCCAAATTGTTTTCTCACTTTTGTACCACAGATAGATCCCCC
DNA 2: GGGGGATCTATCTGTGGTACAAAAGTGAGAAAACAATTTGGGATGCCCCC
B4: 77 (dsDNA)
DNA 1: GGGGGTATGTCTATTTGTTTTTTATTTTTTGAAGACTCCCCC
DNA 2: GGGGGAGTCTTCAAAAAATAAAAAACAAATAGACATACCCCC
B5: 68 (dsDNA)
DNA 1: GGGGGTTTGTTTGTTTGTTTAAAGGATTTATTTATTTATCCCCC
DNA 2: GGGGGATAAATAAATAAATCCTTTAAACAAACAAACAAACCCCC
B6: 63 (dsDNA)
DNA 1: GGGGGAGAAATCCTCAATTTCCTTATCCACAAAATGGACATTTTCCTAGTACCTCCCCC
DNA 2: GGGGGAGGTACTAGGAAAATGTCCATTTTGTGGATAAGGAAATTGAGGATTTCTCCCCC
B7: 64 (dsDNA)
DNA 1: GGGGGATATATGCACAAACACTCATTTACATAAAATAACCCCC
DNA 2: GGGGGTTATTTTATGTAAATGAGTGTTTGTGCATATATCCCCC
B8: 72 (dsDNA)
DNA 1: GGGGGGTTTGTTTTTTAAGGAACTGTAATGAACAAATGTCAGGACCCCC
DNA 2: GGGGGTCCTGACATTTGTTCATTACAGTTCCTTAAAAAACAAACCCCCC
B9: 78 (dsDNA)
DNA 1: GGGGGTCTTTTGATTTGTCCGATTTAGGTTTTAAACCCCC
DNA 2: GGGGGTTTAAAACCTAAATCGGACAAATCAAAAGACCCCC
B10: 69 (dsDNA)
DNA 1: GGGGGACAAGTGATTTGTCCTTATCACATAGCTAGGAAAAGGGAATCCCCC
DNA 2: GGGGGATTCCCTTTTCCTAGCTATGTGATAAGGACAAATCACTTGTCCCCC
B11: 73 (dsDNA)
DNA 1: GGGGGCTTGTCCTCAGCATCTATGGTAACACACAAATCCTGAAGCCCCC
DNA 2: GGGGGCTTCAGGATTTGTGTGTTACCATAGATGCTGAGGACAAGCCCCC
B12: 74 (dsDNA)
DNA 1: GGGGGGACTTTCTTGGCGGATTTGGTAACGACAAAGTTAGGATCCCCC
DNA 2: GGGGGATCCTAACTTTGTCGTTACCAAATCCGCCAAGAAAGTCCCCCC
B13: 76 (dsDNA)
DNA 1: GGGGGCAGGTATGATTGTCCATATTGCTAATAAACCCCCC
DNA 2: GGGGGGTTTATTAGCAATATGGACAATCATACCTGCCCCC
B14: 75 (dsDNA)
DNA 1: GGGGGGCTCTGGGTATAATTAACAATAAAATGCACCCCC
DNA 2: GGGGGTGCATTTTATTGTTAATTATACCCAGAGCCCCCC
B15: 67 (dsDNA)
DNA 1: GGGGGGCATATGCATTGTCTGTGTATTCTAAATGTATCCCCC
DNA 2: GGGGGATACATTTAGAATACACAGACAATGCATATGCCCCCC
B16: 84 (dsDNA)
DNA 1: GGGGGTATGAATCACAATGTAAATATCTGTGTTTACCCCC
DNA 2: GGGGGTAAACACAGATATTTACATTGTGATTCATACCCCC
B17: 82 (dsDNA)
DNA 1: GGGGGACTATTTATTTGTGTTTTCCTATTCACTTTACATCCCCC
DNA 2: GGGGGATGTAAAGTGAATAGGAAAACACAAATAAATAGTCCCCC
B18: 79 (dsDNA)
DNA 1: GGGGGTGATAGTAACAAAAACCATTTTGTTTTTGGCTCCCCC
DNA 2: GGGGGAGCCAAAAACAAAATGGTTTTTGTTACTATCACCCCC
B19: 66 (dsDNA)
DNA 1: GGGGGGGAACTCCCTTAAATTTGGTTTGTTTATGTGTCCCCC
DNA 2: GGGGGACACATAAACAAACCAAATTTAAGGGAGTTCCCCCCC
B20: 83 (dsDNA)
DNA 1: GGGGGGTCCAAGTTTTGTGACCCTTTAATACAGTTAGATCCCCCC
DNA 2: GGGGGGATCTAACTGTATTAAAGGGTCACAAAACTTGGACCCCCC

Chain of Pax6 DNA-binding domain (BD-Pax6) (P63015 190-289): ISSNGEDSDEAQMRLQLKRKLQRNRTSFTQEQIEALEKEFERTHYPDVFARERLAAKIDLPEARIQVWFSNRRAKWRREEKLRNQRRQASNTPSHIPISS

The first data set addresses Pax6 DNA-binding domain (BD-Pax6) (Mus musculus (B6), UniProt P63015 190-289). Nature of the data set: EMSA; 10% glycerol, 20 mM HEPES pH 7.8, 45 mM KCl, 10 mM NaCl, 1 mM EDTA, 1 mM DTT, 0.2 ug/uL BSA, 0.1% NP-40, 50 ng poly-dIdC; 20 ng each GST protein; room temperature 30 min (heterodimers 4 C); 6% PAGE 0.25x TBE. As to conditions: protein: recombinant; tags: GST (N-terminal, pGEX-6P-1); label: 32P-dCTP fill-in of the 5' (dG)5 overhangs of both strands (Methods; control probes are given with GGG). In a few lines:
(§1)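 Candidate cis-element oligonucleotides were annealed, labelled with 32P-dCTP and tested against GST-tagged transcription factor DNA-binding domains made in E. coli BL21 and purified on glutathione-sepharose. For each binding reaction, 20 ng protein was combined with 40,000–50,000 cpm probe and 50 ng poly-dIdC in HEPES/KCl glycerol buffer containing BSA and detergent for 30 min at room temperature. Gels of 6% polyacrylamide in 0.25×TBE were run at 4°C, and band radioactivity was measured on a BAS4000 imager. The readout for DNA binding was the band signal in the expected shift region.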
For the molecule B1, the binding result is “binds”.
On the same count and under the same terms, with B2 the entry was “no binding”.
As for B3, the binding result was “no binding”.
Still for that read-out and setting: under B4 stands “no binding”; under B5, “binds”.
Same read-out and setting: with B6 the entry was “binds”.
With B7, the binding result is listed as “binds”.
With B8, the binding result is “binds”.
On the same count and under the same terms, with B9 the entry was “no binding”; with B10, “no binding”; with B11, “no binding”.
On the same count and under the same terms, with B12 the entry was “no binding”; with B13, “binds”.
For B14, the binding result is listed as “binds”.
Take B15: the binding result is “no binding”.
Same read-out and setting: under B16 stands “binds”; under B17, “no binding”.
With B18, the binding result was “no binding”.
Still for that read-out and setting: with B19 the entry was “binds”; with B20, “binds”.

Another data set has as its target T1, Oct6 DNA-binding domain (BD-Oct6). The description is as above. The note with it: protein: recombinant; tags: GST (N-terminal, pGEX-6P-1); label: 32P-dCTP fill-in of the 5' (dG)5 overhangs of both strands (Methods; control probes are given with GGG). Put shortly: as §1
With B1, the binding result is reported as “binds”.
The same measure, in the same setting: with B2 the entry was “no binding”.
Regarding B3, the binding result is “binds”.
As to B4, the binding result was “no binding”.
Regarding B5, the binding result is recorded as “binds”.
On to B6, for which the binding result is on record as “binds”.
For the molecule B7, the binding result is “binds”.
On the same count and under the same terms, under B8 stands “binds”; under B9, “binds”.
The same measure, in the same setting: under B10 stands “binds”; under B11, “no binding”.
In the case of B12, the binding result was “no binding”.
B13: the binding result was “binds”.
Still for that read-out and setting: under B14 stands “binds”; under B15, “no binding”.
The same measure, in the same setting: with B16 the entry was “no binding”; with B17, “binds”.
The same measure, in the same setting: under B18 stands “no binding”; under B19, “binds”; under B20, “binds”.

The target in a further data set is T2, Brn2 DNA-binding domain (BD-Brn2). The description is as above. The note with it: protein: recombinant; tags: GST (N-terminal, pGEX-6P-1); label: 32P-dCTP fill-in of the 5' (dG)5 overhangs of both strands (Methods; control probes are given with GGG). Put shortly:
as §1
Turning to B1, the binding result is listed as “binds”.
With B2, the binding result is “no binding”.
As to B3, the binding result was “no binding”.
Take B4: the binding result is “no binding”.
Same read-out and setting: with B5 the entry was “binds”; with B6, “no binding”; with B7, “binds”.
The same measure, in the same setting: under B8 stands “binds”; under B9, “no binding”.
For B10, the binding result is “no binding”.
For B11, the binding result was “no binding”.
As to B12, the binding result is “no binding”.
As for B13, the binding result was “binds”.
As to B14, the binding result is reported as “binds”.
For B15, the binding result is given as “no binding”.
Still for that read-out and setting: with B16 the entry was “no binding”; with B17, “no binding”.
On to B18, for which the binding result is given as “no binding”.
Consider B19, for which the binding result is reported as “no binding”.
On the same count and under the same terms, with B20 the entry was “no binding”.
